This is an account of results in US20190202883A1 (Takeda / Millennium, published 2019).

Square brackets hold non-standard residues; d marks the D form. Side chains are listed from the residue outwards. αMeF = C[C@](N)(Cc1ccccc1)C(=O)O; Iva = CC[C@](C)(N)C(=O)O; Oda = not defined here; Aib = CC(C)(N)C(=O)O

Common to all, as to test: cell-based or functional assay
One assay has as its target human GLP-1R (human, UniProt P43220 24-463).
For a further assay, the target named is T1, human NPY2R (human, UniProt P49146 1-381).
T1 sequence (looked up): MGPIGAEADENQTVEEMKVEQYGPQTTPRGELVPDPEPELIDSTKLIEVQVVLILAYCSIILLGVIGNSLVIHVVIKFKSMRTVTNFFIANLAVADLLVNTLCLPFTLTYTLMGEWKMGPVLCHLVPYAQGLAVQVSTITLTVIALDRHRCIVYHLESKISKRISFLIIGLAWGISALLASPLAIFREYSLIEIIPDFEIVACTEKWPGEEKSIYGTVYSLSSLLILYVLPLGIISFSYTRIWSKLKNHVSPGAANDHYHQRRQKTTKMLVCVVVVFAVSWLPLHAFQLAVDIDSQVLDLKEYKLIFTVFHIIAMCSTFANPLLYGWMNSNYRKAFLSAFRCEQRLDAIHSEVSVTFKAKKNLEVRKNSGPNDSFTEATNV

The target in a further assay is T2, human GIPR (human, UniProt P48546 22-466).
T2 sequence (looked up): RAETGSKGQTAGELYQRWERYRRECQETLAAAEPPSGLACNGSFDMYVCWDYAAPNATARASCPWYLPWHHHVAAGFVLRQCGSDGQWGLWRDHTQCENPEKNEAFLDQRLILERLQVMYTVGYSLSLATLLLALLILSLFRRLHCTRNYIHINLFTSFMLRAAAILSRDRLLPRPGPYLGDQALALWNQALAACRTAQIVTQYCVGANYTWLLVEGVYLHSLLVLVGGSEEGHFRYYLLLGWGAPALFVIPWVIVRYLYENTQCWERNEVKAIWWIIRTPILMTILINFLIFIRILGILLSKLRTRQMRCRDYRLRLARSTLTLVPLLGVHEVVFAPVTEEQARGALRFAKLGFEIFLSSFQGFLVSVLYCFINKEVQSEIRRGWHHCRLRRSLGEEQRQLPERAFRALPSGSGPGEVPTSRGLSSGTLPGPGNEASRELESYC

B1: H-Tyr-Aib-Glu-Gly-Thr-αMePhe-Thr-Ser-Asp-Lys(-Gly-Gly-Gly-Gly-Oda)-Aib-Ile-Aib-Leu-Asp-Lys-Gln-Ala-Gln-Iva-Glu-Phe-Val-Arg-His-Leu-Leu-Asn-Lys-Aib-Thr-Arg-Gln-A … (peptide)
peptide: H-Y[Aib]EGT[αMeF]TSDK([Gly-Gly-Gly-Gly-Oda])[Aib]I[Aib]LDKQAQ[Iva]EFVRHLLNK[Aib]TRQRY-NH2
modifications: reading uncertain; also: printed as H-Tyr-Aib-Glu-Gly-Thr-αMePhe-Thr-Ser-Asp-Lys(-Gly-Gly-Gly-Gly-Oda)-Aib-Ile-Aib-Leu-Asp-Lys-Gln-Ala-Gln-Iva-Glu-Phe-Val-Arg-His-Leu-Leu-Asn-Lys-Aib-Thr-Arg-Gln-Arg-Tyr-NH2
Consider B1, for which the “Agonist activity (EC50), Cre-luc reporter assay” value (shortened to “Agonist activity (EC50)”) with human GLP-1R was determined as 0.078 nM; with human NPY2R it was 2.4 nM; with human GIPR, 0.074 nM.

B2: Me-Tyr-Aib-Glu-Gly-Thr-αMePhe-Thr-Ser-Asp-Lys(-Gly-Gly-Gly-Gly-Oda)-Ser-Lys-Aib-Leu-Asp-Lys-Gln-Arg-Gln-Iva-Glu-Phe-Val-Arg-His-Leu-Leu-Asn-Lys-Aib-Thr-Arg-Gln- … (peptide)
peptide: Me-Y[Aib]EGT[αMeF]TSDK([Gly-Gly-Gly-Gly-Oda])SK[Aib]LDKQRQ[Iva]EFVRHLLNK[Aib]TRQRY-NH2
modifications: reading uncertain; also: printed as Me-Tyr-Aib-Glu-Gly-Thr-αMePhe-Thr-Ser-Asp-Lys(-Gly-Gly-Gly-Gly-Oda)-Ser-Lys-Aib-Leu-Asp-Lys-Gln-Arg-Gln-Iva-Glu-Phe-Val-Arg-His-Leu-Leu-Asn-Lys-Aib-Thr-Arg-Gln-Arg-Tyr-NH2
For B2, the “Agonist activity (EC50)” value amounted to 4.5 nM with human GLP-1R, 1.2 nM in the assay with human NPY2R and 0.38 nM with human GIPR.

B3: Me-Tyr-Aib-Glu-Gly-Thr-αMePhe-Thr-Ser-Asp-Lys(-Gly-Gly-Gly-Gly-Pal)-Ser-Lys-Aib-Leu-Asp-Lys-Gln-Arg-Gln-Iva-Glu-Phe-Val-Arg-His-Leu-Leu-Asn-Lys-Aib-Thr-Arg-Gln- … (peptide)
peptide: Me-Y[Aib]EGT[αMeF]TSDK([Gly-Gly-Gly-Gly-Pal])SK[Aib]LDKQRQ[Iva]EFVRHLLNK[Aib]TRQRY-NH2
Turning to B3, the “Agonist activity (EC50)” value is 0.073 nM with human GLP-1R, 0.02 nM with human NPY2R and 0.048 nM with human GIPR.

B4: H-Tyr-Aib-Glu-Gly-Thr-αMePhe-Thr-Ser-Asp-Lys(-Gly-Gly-Gly-Gly-Pal)-Aib-Ile-Aib-Leu-Glu-Lys-Gln-Arg-Gln-Iva-Glu-Phe-Val-Arg-His-Leu-Leu-Asn-Lys-Aib-Thr-Arg-Gln-A … (peptide)
peptide: H-Y[Aib]EGT[αMeF]TSDK([Gly-Gly-Gly-Gly-Pal])[Aib]I[Aib]LEKQRQ[Iva]EFVRHLLNK[Aib]TRQRY-NH2
With B4, the “Agonist activity (EC50)” value in the assay with human GLP-1R was 0.061 nM; with human NPY2R, 0.057 nM; with human GIPR it was 0.049 nM.

B5: Me-Tyr-Aib-Glu-Gly-Thr-αMePhe-Thr-Ser-Asp-Lys(-Gly-Gly-Gly-Gly-Pal)-Aib-Ile-Aib-Leu-Glu-Lys-Gln-Arg-Gln-Iva-Glu-Phe-Val-Arg-His-Leu-Leu-Asn-Lys-Aib-Thr-Arg-Gln- … (peptide)
peptide: Me-Y[Aib]EGT[αMeF]TSDK([Gly-Gly-Gly-Gly-Pal])[Aib]I[Aib]LEKQRQ[Iva]EFVRHLLNK[Aib]TRQRY-NH2
Turning to B5, the results for the “Agonist activity (EC50)” value with human GLP-1R, in the assay with human NPY2R and with human GIPR were 0.13 nM, 0.067 nM and 0.082 nM, respectively.

B6: H-Tyr-Aib-Glu-Gly-Thr-αMePhe-Thr-Ser-Asp-Lys(-Gly-Gly-Gly-Gly-Pal)-Aib-Ile-Aib-Leu-Asp-Lys-Gln-Ala-Gln-Iva-Glu-Phe-Val-Arg-His-Leu-Leu-Asn-Lys-Aib-Thr-Arg-Gln-A … (peptide)
peptide: H-Y[Aib]EGT[αMeF]TSDK([Gly-Gly-Gly-Gly-Pal])[Aib]I[Aib]LDKQAQ[Iva]EFVRHLLNK[Aib]TRQRY-NH2
B6: the “Agonist activity (EC50)” value with human GLP-1R was 0.042 nM; with human NPY2R, 0.038 nM; with human GIPR, 0.041 nM.

B7: H-Tyr-Aib-Glu-Gly-Thr-αMePhe-Thr-Ser-Asp-Lys(-Gly-Gly-Gly-Gly-Oda)-Aib-Ile-Aib-Leu-Glu-Lys-Gln-Arg-Gln-Iva-Glu-Phe-Val-Arg-His-Leu-Leu-Asn-Lys-Aib-Thr-Arg-Gln-A … (peptide)
peptide: H-Y[Aib]EGT[αMeF]TSDK([Gly-Gly-Gly-Gly-Oda])[Aib]I[Aib]LEKQRQ[Iva]EFVRHLLNK[Aib]TRQRY-NH2
modifications: reading uncertain; also: printed as H-Tyr-Aib-Glu-Gly-Thr-αMePhe-Thr-Ser-Asp-Lys(-Gly-Gly-Gly-Gly-Oda)-Aib-Ile-Aib-Leu-Glu-Lys-Gln-Arg-Gln-Iva-Glu-Phe-Val-Arg-His-Leu-Leu-Asn-Lys-Aib-Thr-Arg-Gln-Arg-Tyr-NH2
Turning to B7, the “Agonist activity (EC50)” value in the assay with human GLP-1R is 0.25 nM; with human NPY2R, 2.7 nM; with human GIPR, 0.52 nM.

B8: Me-Tyr-Aib-Glu-Gly-Thr-αMePhe-Thr-Ser-Asp-Lys(-Gly-Gly-Gly-Gly-Pal)-Aib-Ile-Aib-Leu-Asp-Lys-Gln-Ala-Gln-Iva-Glu-Phe-Val-Arg-His-Leu-Leu-Asn-Lys-Aib-Thr-Arg-Gln- … (peptide)
peptide: Me-Y[Aib]EGT[αMeF]TSDK([Gly-Gly-Gly-Gly-Pal])[Aib]I[Aib]LDKQAQ[Iva]EFVRHLLNK[Aib]TRQRY-NH2
Regarding B8, the entries for the “Agonist activity (EC50)” value in the assay with human GLP-1R, with human NPY2R and with human GIPR were 0.043 nM, 0.03 nM and 0.038 nM, respectively.

B9: Me-Tyr-Aib-Glu-Gly-Thr-αMePhe-Thr-Ser-Asp-Lys(-Gly-Gly-Gly-Gly-Oda)-Aib-Ile-Aib-Leu-Asp-Lys-Gln-Ala-Gln-Iva-Glu-Phe-Val-Arg-His-Leu-Leu-Asn-Lys-Aib-Thr-Arg-Gln- … (peptide)
peptide: Me-Y[Aib]EGT[αMeF]TSDK([Gly-Gly-Gly-Gly-Oda])[Aib]I[Aib]LDKQAQ[Iva]EFVRHLLNK[Aib]TRQRY-NH2
modifications: reading uncertain; also: printed as Me-Tyr-Aib-Glu-Gly-Thr-αMePhe-Thr-Ser-Asp-Lys(-Gly-Gly-Gly-Gly-Oda)-Aib-Ile-Aib-Leu-Asp-Lys-Gln-Ala-Gln-Iva-Glu-Phe-Val-Arg-His-Leu-Leu-Asn-Lys-Aib-Thr-Arg-Gln-Arg-Tyr-NH2
For B9, the “Agonist activity (EC50)” value came out at 0.15 nM in the assay with human GLP-1R, 3.3 nM in the assay with human NPY2R and 0.074 nM with human GIPR.
